For 106 substances, median enrichment results are on record in the supplement of paper PMC11502859.

“And” between values parts separate entries of the source, which are not always exact repeats. Identical values can stand only once.
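Also: lentiviral eGFP-IRES-mCherry reporter pool sorted by FACS 96 h post-transduction, gated on mCherry-high cells, Illumina read counts normalized per million, median across four biological replicates.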

This data set deals with HEK293T. Briefly: median enrichment of reporter reads in eGFP-reduced (low/intermediate) vs eGFP-high sorted cells (eGFP-extension fusion abundance) (ratio); higher = stronger loss of eGFP-fusion protein abundance (more destabilising extension).
Take YTPLCHFSGDPAFLIWK [CENPE]: the median enrichment was 5.97. For WYSFHYSI [BTN3A3] the value was 6.28. For WGPPRARRTGTELSRGRSPRQAQLV [CDS2] the value was 11.7; for “WSDCPENQKSKETRETSSLVNEPIKSRSLKKYVSVKKENRIVTVSSKTNKSKSSPLEHSESDTLGCDFEFQESIHSLSHLSYD [CEP78]”, 1.3; for “WGPVHAGGLRDPHNPQTQSPRALPKPLAWLQSRLRAGATYPCAGTCSLCSVLITPP [RUSC2]”, 7.23. For RQRPPAPALPQPSY [SART1] the value was 0.558; for “LHTELFIDTPHDCISRTHLLIILDPRETITSPSRQWRQIKISAEKEGHVEPQKHFYSG [SNTG1]”, 9; for FFF [Phe03], 5.17. On to YIMRHTV [TBC1D32], for which the median enrichment turned out to be 5.87. Consider RGCQLGRKRETRP [CCND2], for which the median enrichment was determined as 0.783. The value for YRSAVQENVMLGTPSSVVLASHASAAELAE [DEFA4] was 2.45. Consider QQQ [Gln03], for which the median enrichment was 0.325. Take “GGAVAANTPASGLLVAAPGDTPAKPTRWRGPPWSLATLPASAQGPLPSPGHLLCRRHSSQKPLSQKRLVFKKSRFFAPEVSFR [AP1M1]”: the median enrichment came to 5.45. The value for SVAGGVTARSPDFTSFGPVLL [UTP14A] was 0.633; that for “RAALLSSQAAPVPSPSTLEWSSSACFPSHRPATTPTMCRKHCLTIPHPPDNSQGWSPGHFQLLLSPCIVSLLCFFSLPPLLFL [RAB15]” was 7.07; that for WSPMPAHL [CDNF] was 9.59. For “KVPMSQPGLWLPSIPSPEMAPWDEEGRVGCWCRIKIWQDRLPQGHRPLPPTRTPPTQLPLRVL [ITGA7]” the value was 17.1; for “LAVWAPRGLALLPGLGEPRAALPWQRQDVGERSLVQ [GRK6]”, 3.3.

Consider QYTF [PNISR], for which the median enrichment amounted to 1.03. The value for “QPETGGSPPARSGASSCQSSWCYPLNPSAATATVGLRVSEQERKDKLFVVPTMLRFGNPGVFPGGLRKQSL [TNFAIP3]” was 4.84. The value for SKACILFEDIYKAI [KRT34] was 2.29. The value for SLRLQRLLCIAFLLQCKERDQGSQEMFAQNGR [GDNF] was 8.43; that for QNIYRVTKNKQSKKKTVY [LRRC4C] was 31.9; that for WPG [KDM8] was 0.882. Regarding KKVGTMRGVGYP [Degron APPBP2], the median enrichment worked out at 4.39. SAPPAACPACPACLSRHTGFRTC [DIS3L2]: the median enrichment came to 16.6.

With “EPWPWAPPQGRASRNGDSPGTACPQRGGGHSWAPESLRVLPTEPLGWEGAGGLARTPTFASSSSCPAGRAPPCMMGKAILPLP [SCN1B]”, the median enrichment is 2.5. For QGNPRSNQGGGS [POLA1] the value was 0.576. Regarding VVVVVV [Val06], the median enrichment stood at 5.06. As for RKWNS [GCSH], the median enrichment was 0.655. Consider “NLYSLESMSCVYSTIRNLILFLLLFLQKQKLILKSIIMGWGGGCPQDMQDFCRGQHRFWDCEAVSEGGQAVWMAGLMLFRIKC [SETD4]”, for which the median enrichment was 13.5.

As to YKKVGTMRGRGL [Degron APPBP2], the median enrichment was determined as 16.9. For QGDL [DPYD] the value was 0.394; for YTTMYFNKDHQC [LRP2BP], 1.43 and 3.14; for SDQLVCL [PPP1R15A], 0.401. In the case of “SPELTAQSVDRASVRRHRERPGGSLSMDSQTAGEHLGQPPEGPLLDPRENLLALAVILE [ICOSLG]”, the median enrichment came out at 2.2. For “QWPHPHWAQARRGPAHAHTTGQGCGAGAIPAPFPGPRGLGSLPSHPGLVPPGAPTVEIRRGWNGGRGGAGGPHPSAALGLGPH [GNB2]” the value was 7.88; for “FLELKHPRMPLHVFHSPHLQTSLLFLTRPESKLPSLGNSGEGVSCTTYHTPSHPVSDFGMDSGKLGPSLNRVMYLNVCYFQPP [HSPA1L]”, 6.57. “YFTIKVKQRKLYAGHICMRIQLFSGCSTTK [TMPRSS11A]”: the median enrichment came out at 9.64.

Regarding CEGYYPFYYGTMPCVKNNHPLAYSH [DPY19L2], the median enrichment stood at 8.92. The value for “LGHRQESVWAGLFNMVFAVLPPWGPWSDNIVSLVRLSRCLIRTANGASPTPPRVRPPFHQRVSSQRPPASCPAAQEEKEGLNS [PDGFB]” was 4.11; that for WGC [PIGN] was 0.651. The value for YDHSGQDHSGHGHGHSHGGHGHSH [S100A9] was 0.275; that for GHSPLLVPH [TP53] was 0.449. “CNHLTRTIGAPVASAHCLSLEKWRNKCYIYLCV [FAM149A]”: the median enrichment was 6.79. In the case of LYPFPIHSQINYNGC [SCNM1], the median enrichment amounted to 7.94.

For GPPSTSQQQD [DENND5A], the median enrichment stood at 0.577. The value for FFFFFFFF [Phe08] was 9.45; that for SWTVPICREA [RWDD1] was 6.01. For “YGRDWHRLAFQHLLSPTLHSLLPCLSNKPNAACEAFFIFLFTLFLMLPTLPFRFFC [RSU1]” the value was 10.2; for WYHMFSWYVN [ABHD10], 5.5; for LAWN [CLRN1], 0.652. Consider WVKEEKPSTP [TAS2R19], for which the median enrichment turned out to be 0.336.

Take III [Ile03]: the median enrichment was determined as 3.74. Regarding VVVVVVVVV [Val09], the median enrichment was found to be 8.21.

Turning to YQIYRVEGLIGEGRSSGSTQELDWKRSL [SON], the median enrichment came out at 9.11. Turning to CEQ [PRF1], the median enrichment is 12.2. The value for “RGHRSEMRGLECGWAPGAMGGCGAGEIKSELLLPGVPTSSSGQSVHSQPDR [BCL2]” was 1.46. With SCPSFGNILF [RNASET2], the median enrichment came to 0.362. Take RLEPV [TMEM87B]: the median enrichment worked out at 0.479. Consider “YDPCGRPLPPSHRLPHHSCLVLGRPHCALALGLPSLLQQGTGALARVTD [GTF3C1]”, for which the median enrichment was 6.87. For WPTSRIYSSWKLPNGEDSTKY [KRTAP24-1] the value was 3.66. For “WGLRPHAPSHAVHPFSQVPNGPGSQDPGPSQNLCPPCP [SARDH]” the value was 9.03. The value for “WMVLSAGSPLRSGQRKMGGCSSPPQHNDQPPS [NLRP12]” was 13.1. Take “YDGAVTERTQESGTPPGIPSTFSCSWERPGGGAHWEGQDSVPALILPCPDVSCFAQRSFLSTPLIPRLVPREGWRPGHGPSRR [ASIC4]”: the median enrichment turned out to be 4.69. The value for SGFLKLSSKLLRLFK [FABP12] was 7.41. For QSTTALSS [GALNT4] the value was 0.487; for MMMMMMMM [Met08], 8.55; for FFFFFFFFFF [Phe10], 7.03.

On to EFILMKENVTKEMHEM [MYH4], for which the median enrichment was 2.79.

In the case of LASCGPGNEMELTA [TSSK1B], the median enrichment worked out at 1.49. As for QCMSLV [CCDC6], the median enrichment is 0.689. For QCPN [LRRC3B] the value was 0.337.

Turning to SSSSSS [Ser06], the median enrichment is 0.35. The value for KLICKIRNWTHIALFECEVR [RNF182] was 12.7.

YYY [Tyr03]: the median enrichment was 1.14. The value for “RLSTGPLHTISLIYVPSTLPQISGSGPGTWEGTGVRGCMGALAAPGSVVGRKLWKL [LRRC73]” was 6.15.

As for “RVFLGIVFCSCFSVLGMGPGPDTPSPPLWPWPLKLQTQVPILFSPSNAPPNLQPPCLQLPGPGRALVPSLGLIFSLNSTDQLP [JUP]”, the median enrichment came to 7.92. For the substance “QLSLPPQPGSPALESSVLHAEDAPSLDWSGLLPNDIAQRLWSRHPAEWGPRGCQLGALPLAATLWSGRVLHHQEDPILSSVSC [INAFM1]”, the median enrichment amounted to 4.8. For the substance “CLGVKAFHGHPCTGYLLVMLQNVSPTLCPSLALLPQSP [TEX35]”, the median enrichment stood at 11.2. The value for “PEPGWGISAGQRRRLSQLFPDIQGHCSLLPSRTSLLPPTMAGGEQVSQKHPVPRMVLCACPSLLGLPFPLLREDVSLLTCTLA [KIRREL1]” was 4.27; that for “YSQRGGQSQSQLLSCPLLPARALVLTPSCIPHLRSVY [SLC2A11]” was 11.1.

CCP [RUBCNL]: the median enrichment is 0.512. For “WRRLVSTHSGAFLISSSHTNHPSLPIVSSSQ [CYP19A1]” the value was 12.8. For KRRIYVLFKQEKVTLPMLSPLHNI [CDH10] the value was 4.44; for LSPQMGAEIFQSLEFFQ [ZNF112], 0.686.

Consider KNQGCFEGKGSLSYALLYHQDYILKRKSSM [GPR65], for which the median enrichment is 11.5.

For the substance LNE [ZCCHC2], the median enrichment came to 0.346. For the substance EMALSPPRSWGQ [Degron APPBP2], the median enrichment was 10.9. The value for YPVGGWRVCHSNLIESRKTEGNAAAN [OR52E8] was 4.

“LHSCTPISRAASLPSRGLQQCAWLAAAPPRAPWPRRCQPT [THSD4]”: the median enrichment is 7.14. On to VSGIMRRPWGMN [Degron APPBP2], for which the median enrichment is 10.2. Regarding LGEMSLSFLLPF [C10orf82], the median enrichment is 3.93. The value for CGAEHHPSH [PPM1J] was 0.355; that for YDLEFC [PQLC2L] was 0.999. The value for GSVQGFLGPSCLS [KCNA10] was 0.463; that for CALYLGSGQELHLGTNSC [ABCF2] was 13.2; that for YLDHDLVQ [TRAT1] was 0.456.

In the case of LVGWLLVFVSFLSCLLLKGNQK [MYCT1], the median enrichment worked out at 9.75.

As for CLL [ACSBG2], the median enrichment was found to be 7.26.

Consider SSSSLFLGNSLLFLPHGRCK [MAX], for which the median enrichment amounted to 4.93.

For the substance YHPGL [GORASP1], the median enrichment was determined as 0.424. The value for “SQKHVHFGKQACILPVQYLHSTDGTVWRSTFSYFCESIHVGPVSRICTFVPSTVTANLSV [ARHGEF3]” was 10.6; that for QSYHSGC [USP32] was 0.623; that for QVNANSIVEPGV [PRKCB] was 0.284. With SNGSI [PHF20L1], the median enrichment is 0.369.
